A short description of this data set: protein stability index of a GFP-peptide fusion (yeast GPS) (PSI 1-4); higher = more stable; sorted into four equal gates, so the index is relative within each strain. The method, boiled down:
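Yeast carrying a pooled library were grown to mid-log phase in leucine-free medium. Each library plasmid expresses Cherry and has a tiled 17-residue yeast protein peptide fused downstream of GFP. Cells were sorted into four equal gates by GFP/Cherry ratio, and plasmids from each gate were PCR-amplified, Illumina-sequenced and assigned to strains by barcode. Summing, across gates, the read frequency times the gate number gave each peptide's protein stability index.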

± gives the uncertainty stated by the source.

As for ENDIIKLSDSKTSNIES [BRR2], the protein stability index was 2.48 ± 0.18 (pdr5∆), 2.77 ± 0.19 (san1∆) and 3.09 ± 0.15 (ubr1∆).

With ENDLLQEFDSELSKEEK [SMC3], the protein stability index runs as follows: (doa10∆) 2.74 ± 0.3; (ubr1∆) 3.03 ± 0.27.

ENDTTLVKTKELIKNYI [FAS1]: the protein stability index reads like this: (doa10∆) 3.04 ± 0.13; (pdr5∆) 2.85 ± 0.15; (san1∆) 2.83 ± 0.13; (ubr1∆) 2.68 ± 0.058.

For the sequence ENFAKGEHISAIVPGQS [SWP82], the protein stability index reads like this: (doa10∆) 3.01 ± 0.064; (pdr5∆) 3.18 ± 0.085; (san1∆) 2.87 ± 0.06; (ubr1∆) 3.05 ± 0.055.

For the sequence ENGIEVELLDSNDRVNP [ITC1], the protein stability index (doa10∆) was 3.56 ± 0.078, the protein stability index (pdr5∆) came out at 3.2 ± 0.11, the protein stability index (san1∆) worked out at 3.29 ± 0.062 and the protein stability index (ubr1∆) was determined as 3.19 ± 0.061.

The sequence ENGQRDLDRIAAQTLEE [RPS19A] gave a protein stability index (doa10∆) of 3.2 ± 0.084, a protein stability index (pdr5∆) of 3.16 ± 0.086, a protein stability index (san1∆) of 3.28 ± 0.097 and a protein stability index (ubr1∆) of 3.19 ± 0.093.

On to ENISLAEFILKNRSTIF [BRR2], for which the protein stability index (doa10∆) worked out at 2.77 ± 0.082, the protein stability index (pdr5∆) turned out to be 2.13 ± 0.082, the protein stability index (san1∆) is 1.67 ± 0.11 and the protein stability index (ubr1∆) was 1.88 ± 0.054.

Sequence ENKTKKDNDKNLKFLKN [SRB4] yielded a protein stability index (doa10∆) of 3.42 ± 0.064, a protein stability index (pdr5∆) of 3.4 ± 0.079, a protein stability index (san1∆) of 3.28 ± 0.048 and a protein stability index (ubr1∆) of 3.42 ± 0.057.

Turning to ENLVVADLESFANNHFL [COR1], the protein stability index was determined as 1.7 ± 0.12 (doa10∆), 2.24 ± 0.18 (pdr5∆), 1.97 ± 0.14 (san1∆) and 1.89 ± 0.12 (ubr1∆).

ENNDDALDLDLDLFDPD [MED4]: the protein stability index is 2.89 ± 0.067 (doa10∆), 2.98 ± 0.098 (pdr5∆), 2.79 ± 0.052 (san1∆) and 3.1 ± 0.051 (ubr1∆).

With EPAIEEENGDSIKEHST [MED1], the protein stability index (doa10∆) was 3.32 ± 0.19, the protein stability index (san1∆) is 3.23 ± 0.14 and the protein stability index (ubr1∆) was found to be 3.56 ± 0.14.

On to EPIDQNTGIVSSTTGMS [RPT3], for which the protein stability index turned out to be 3.15 ± 0.11 (doa10∆), 2.65 ± 0.22 (pdr5∆), 3.39 ± 0.14 (san1∆) and 3.24 ± 0.089 (ubr1∆).

With EPIEESSQNNSELAPIE [IRR1], the protein stability index by setting is: (doa10∆) 2.89 ± 0.2; (pdr5∆) 2.9 ± 0.13; (san1∆) 2.73 ± 0.26; (ubr1∆) 2.73 ± 0.095.

As for EPIKLEPVKEYTFKTSM [YMR129W/POM152], the protein stability index (doa10∆) was determined as 2.22 ± 0.098, the protein stability index (pdr5∆) was found to be 2.29 ± 0.08 and the protein stability index (san1∆) amounted to 1.99 ± 0.17.

Turning to EPPGSNTSFSFTKPPAN [YOR098C/NUP1], the protein stability index came out at 3.12 ± 0.07 (doa10∆), 3.21 ± 0.057 (pdr5∆), 3 ± 0.039 (san1∆) and 2.96 ± 0.053 (ubr1∆).

Regarding EPVKEYTFKTSMRVKPS [YMR129W/POM152], the protein stability index by setting is: (doa10∆) 3.31 ± 0.15; (pdr5∆) 3.08 ± 0.13; (san1∆) 3.04 ± 0.13; (ubr1∆) 3.48 ± 0.16.

As for EQHEEKAAEGEEKEEEN [QCR6], the protein stability index by setting is: (doa10∆) 3.25 ± 0.12; (pdr5∆) 2.92 ± 0.18; (san1∆) 2.98 ± 0.23; (ubr1∆) 3.23 ± 0.079.

For EQIDENWSKEDLQKLLK [SWI3], the protein stability index reads like this: (doa10∆) 3.16 ± 0.067; (pdr5∆) 3.08 ± 0.085; (san1∆) 3.02 ± 0.073; (ubr1∆) 3.26 ± 0.058.

In the case of EQQVKEAEMAYVKAVSD [SMC4], the protein stability index came to 3.21 ± 0.082 (doa10∆), 2.89 ± 0.093 (pdr5∆), 2.83 ± 0.08 (san1∆) and 2.83 ± 0.069 (ubr1∆).

For EQTRTILSVKLAELINM [SRB6], the protein stability index (san1∆) was 2.91 ± 0.24.

For the sequence EQVKDDGTSTEKTFLHL [RPN8], the protein stability index reads like this: (doa10∆) 3.28 ± 0.12; (pdr5∆) 3.66 ± 0.13; (san1∆) 3.42 ± 0.05; (ubr1∆) 3.46 ± 0.082.

ERAARVAAKIAALAGQQ [RPL5]: the protein stability index runs as follows: (doa10∆) 2.71 ± 0.13; (pdr5∆) 3.03 ± 0.17; (san1∆) 2.57 ± 0.15; (ubr1∆) 3.11 ± 0.079.

As for ERDEQKRAEKKAKERLQ [SNF2], the protein stability index runs as follows: (doa10∆) 3.29 ± 0.12; (pdr5∆) 3.45 ± 0.16; (san1∆) 2.98 ± 0.13; (ubr1∆) 3.4 ± 0.12.

Turning to ERDTFSDFTFPEYYSTA [DIS3], the protein stability index by setting is: (doa10∆) 1.66 ± 0.082; (pdr5∆) 1.73 ± 0.082; (san1∆) 2.15 ± 0.17; (ubr1∆) 1.64 ± 0.14.

In the case of EREQPQENKNIDDENIT [SRB4], the protein stability index (doa10∆) stood at 3.5 ± 0.055, the protein stability index (pdr5∆) turned out to be 3.19 ± 0.071, the protein stability index (san1∆) amounted to 3.07 ± 0.051 and the protein stability index (ubr1∆) was determined as 3.65 ± 0.084.

In turn, ERTKNAQFIVISLRNNM [SMC4] yielded a protein stability index (doa10∆) of 2.72 ± 0.13, a protein stability index (pdr5∆) of 1.3 ± 0.063, a protein stability index (san1∆) of 1.33 ± 0.093 and a protein stability index (ubr1∆) of 1.73 ± 0.08.

Consider ERVRLRPEQLSNIIHDE [SNF6], for which the protein stability index by setting is: (doa10∆) 1.73 ± 0.06; (pdr5∆) 2.23 ± 0.068; (san1∆) 1.76 ± 0.083; (ubr1∆) 1.99 ± 0.041.

For the sequence ERVRNFAVIYLCDIDEV [DIB1], the protein stability index was found to be 1.26 ± 0.13 (doa10∆), 1.22 ± 0.093 (pdr5∆), 1.04 ± 0.26 (san1∆) and 1.36 ± 0.088 (ubr1∆).

For the sequence ERVSPTDIEEGMRVGVD [RPT1], the protein stability index (doa10∆) worked out at 3.16 ± 0.14, the protein stability index (pdr5∆) amounted to 3.4 ± 0.14, the protein stability index (san1∆) was determined as 2.83 ± 0.096 and the protein stability index (ubr1∆) worked out at 3.16 ± 0.12.

Turning to ESAPITAEDSWAVISAF [RPB2], the protein stability index (doa10∆) worked out at 3.17 ± 0.08, the protein stability index (pdr5∆) worked out at 2.99 ± 0.062, the protein stability index (san1∆) is 2.91 ± 0.051 and the protein stability index (ubr1∆) worked out at 2.99 ± 0.06.

For the sequence ESDLYKLKECPFDMGGY [RPB2], the protein stability index reads like this: (doa10∆) 3.13 ± 0.076; (pdr5∆) 3.25 ± 0.087; (san1∆) 3.22 ± 0.068; (ubr1∆) 3.34 ± 0.036.

With ESDSKLQCHISGTTNFM [UBP6], the protein stability index by setting is: (doa10∆) 2.63 ± 0.23; (pdr5∆) 2.69 ± 0.26; (san1∆) 2.92 ± 0.28; (ubr1∆) 3.08 ± 0.15.

For ESDTGLAPSHLWDIMGD [RPT1], the protein stability index by setting is: (doa10∆) 2.91 ± 0.16; (san1∆) 3.06 ± 0.12.

With ESGEFDFDLFKEVLPDL [YJL039C/NUP192], the protein stability index is, setting by setting: (doa10∆) 3.43 ± 0.13; (pdr5∆) 3.26 ± 0.092; (san1∆) 3.17 ± 0.063; (ubr1∆) 3.23 ± 0.079.

As for ESIDVDMDAESNESQNG [SMC3], the protein stability index runs as follows: (doa10∆) 3.21 ± 0.094; (pdr5∆) 2.91 ± 0.079; (san1∆) 2.65 ± 0.066; (ubr1∆) 3.27 ± 0.037.

Take ESKFILEALRQNYRLDG [RRP45]: where the note is “san1∆”, the protein stability index worked out at 2.95 ± 0.28.

With ESKGNAFKHKRALVEHI [RPL19A], the protein stability index came to 3.36 ± 0.087 (doa10∆), 3.38 ± 0.1 (pdr5∆), 3.44 ± 0.047 (san1∆) and 3.29 ± 0.054 (ubr1∆).

Sequence ESKQDGLSILFLTGQFA [YML103C/NUP188] had a protein stability index (doa10∆) of 2.79 ± 0.078, a protein stability index (pdr5∆) of 2.57 ± 0.062, a protein stability index (san1∆) of 2.88 ± 0.059 and a protein stability index (ubr1∆) of 2.72 ± 0.063.

With ESLTFNEFQLQWGKYQT [SWI1], the protein stability index amounted to 2.86 ± 0.049 (doa10∆), 2.93 ± 0.047 (pdr5∆), 2.67 ± 0.045 (san1∆) and 2.91 ± 0.034 (ubr1∆).

For the origin of these results see the supplement of paper PMC9732359.
